Experimental data published in article PMC10023157, “Peptides that Mimic RS repeats modulate phase separation of SRSF1, revealing a reliance on combined stacking and electrostatic interactions”.

How the values were obtained:
Assay in all cases: not stated; Fluorescence polarization: 100 mM ER4 peptide, 400 mM Arg/Glu, pH 6.5; temperature not stated; three technical replicates
Details in all cases: protein: recombinant; tags: SUMO (pSMT3) His tag removed by Ulp1
SRSF1 N220C = SRSF1 N220C (human, UniProt Q07955 1-248, C16S;C148S;N220C)
Sequence of SRSF1 N220C (Q07955 whole entry C16S/C148S/N220C): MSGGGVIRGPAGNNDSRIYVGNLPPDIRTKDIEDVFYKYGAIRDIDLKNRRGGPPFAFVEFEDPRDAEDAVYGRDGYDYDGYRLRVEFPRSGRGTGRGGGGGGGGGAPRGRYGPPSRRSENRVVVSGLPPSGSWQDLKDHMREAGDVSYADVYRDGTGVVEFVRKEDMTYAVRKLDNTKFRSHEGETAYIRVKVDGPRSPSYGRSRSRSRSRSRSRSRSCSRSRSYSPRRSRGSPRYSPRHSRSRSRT

SRSF1 NoC = SRSF1 NoC (human, UniProt Q07955 1-248, C16S;C148S)
Sequence of SRSF1 NoC (Q07955 whole entry C16S/C148S): as the sequence (Q07955 whole entry C16S/C148S/N220C) above, with C220N counted along it

SRSF1 T248C = SRSF1 T248C (human, UniProt Q07955 1-248, C16S;C148S;T248C)
Sequence of SRSF1 T248C (Q07955 whole entry C16S/C148S/T248C): as the sequence (Q07955 whole entry C16S/C148S/N220C) above, with C220N, T248C counted along it

Measured: binding result

B1: UCAGAGGA (SRSF1 cognate RNA) (ssRNA)
RNA: UCAGAGGA
binds: all assays above
